Here are results for 2 proteins from ChEMBL document CHEMBL1137310, “Stereoselective chemoenzymatic synthesis of the four stereoisomers of l-2-(2-carboxycyclobutyl)glycine and pharmacological characterization at human excitatory amino acid transporter subtypes 1, 2, and 3” (J Med Chem, 2006).

A word on the Km: it is the substrate concentration at which the rate is half of its maximum.

Assay type in all cases: functional, cell-based
Substrate in series [1]: N[C@H](C(=O)O)[C@@H]1CC[C@H]1C(=O)O
The experiment in a line: (§1) Substrate activity at human EAAT1 expressed in HEK293 cells by FLIPR membrane potential assay.

Substrate in series [2]: N[C@H](C(=O)O)[C@H]1CC[C@@H]1C(=O)O
The description is as §1.

Substrate in series [3]: N[C@@H](CCC(=O)O)C(=O)O
The description is as §1.

Substrate in series [4]: N[C@H](C(=O)O)[C@H]1CC[C@@H]1C(=O)O
As to the kind of experiment: (§2) Substrate activity at human EAAT3 expressed in HEK293 cells by FLIPR membrane potential assay.

Substrate in series [5]: N[C@@H](CCC(=O)O)C(=O)O
Described as §2.

B1: Excitatory amino acid transporter 1 (Homo sapiens), P43003 (protein)
chain: MTKSNGEEPKMGGRMERFQQGVRKRTLLAKKKVQNITKEDVKSYLFRNAFVLLTVTAVIVGTILGFTLRPYRMSYREVKYFSFPGELLMRMLQMLVLPLIISSLVTGMAALDSKASGKMGMRAVVYYMTTTIIAVVIGIIIVIIIHPGKGTKENMHREGKIVRVTAADAFLDLIRNMFPPNLVEACFKQFKTNYEKRSFKVPIQANETLVGAVINNVSEAMETLTRITEELVPVPGSVNGVNALGLVVFSMCFGFVIGNMKEQGQALREFFDSLNEAIMRLVAVIMWYAPVGILFLIAGKIVEMEDMGVIGGQLAMYTVTVIVGLLIHAVIVLPLLYFLVTRKNPWVFIGGLLQALITALGTSSSSATLPITFKCLEENNGVDKRVTRFVLPVGATINMDGTALYEALAAIFIAQVNNFELNFGQIITISITATAASIGAAGIPQAGLVTMVIVLTSVGLPTDDITLIIAVDWFLDRLRTTTNVLGDSLGAGIVEHLSRHELKNRDVEMGNSVIEENEMKKPYQLIAQDNETEKPIDSETKM
As to B1, the Km in series [1] is 96 µM; in series [2], 300 µM; in series [3] it was 7.9 µM.

B2: Excitatory amino acid transporter 3 (Homo sapiens), P43005 (protein)
chain: MGKPARKGCEWKRFLKNNWVLLSTVAAVVLGITTGVLVREHSNLSTLEKFYFAFPGEILMRMLKLIILPLIISSMITGVAALDSNVSGKIGLRAVVYYFCTTLIAVILGIVLVVSIKPGVTQKVGEIARTGSTPEVSTVDAMLDLIRNMFPENLVQACFQQYKTKREEVKPPSDPEMNMTEESFTAVMTTAISKNKTKEYKIVGMYSDGINVLGLIVFCLVFGLVIGKMGEKGQILVDFFNALSDATMKIVQIIMCYMPLGILFLIAGKIIEVEDWEIFRKLGLYMATVLTGLAIHSIVILPLIYFIVVRKNPFRFAMGMAQALLTALMISSSSATLPVTFRCAEENNQVDKRITRFVLPVGATINMDGTALYEAVAAVFIAQLNDLDLGIGQIITISITATSASIGAAGVPQAGLVTMVIVLSAVGLPAEDVTLIIAVDWLLDRFRTMVNVLGDAFGTGIVEKLSKKELEQMDVSSEVNIVNPFALESTILDNEDSDTKKSYVNGGFAVDKSDTISFTQTSQF
As for B2, the Km was 300 µM in series [4] and 9.9 µM in series [5].
